Sequences and labels used below:
B1: I-2446 (peptide)
peptide: Ac-[αAllylPro]N[Cha][B5(5)]DQ[Lys(iPr)]AFL[PyrS2″][3Thi][Bta]Q-NH2
modifications: staple 1-4, 4-11; not fully specified; printed as Ac-PL3-Asn-Cha-B5-Asp-Gln-iPrLys-Ala-Phe-Leu-PyrS2-3Thi-BztA-Gln-NH2

Starred links: 1 amine or outer side, 2 acyl side, 3 side chain; linkers in the order of their positions; H or OH if unused. Positions of bridges follow the written chain, without caps; N, C: chain ends. Non-standard residues stand in square brackets, D forms with d. Primed or numbered codes have the meaning given here. (Pfbn)GAbu = (S)-2-amino-4-((carboxymethyl)((perfluorophenyl)methyl)amino)butanoic acid, O=C([C@H](CCN(CC(=O)[*:3])Cc1c(F)c(F)c(F)c(F)c1F)N[*:1])[*:2]; PyrS2″ = (S)-3-amino-1-((pent-4-en-1-yloxy)carbonyl)pyrrolidine-3-carboxylic acid (stapling residue), C=CCCCOC(=O)N1CC[C@@](N[*:1])(C(=O)[*:2])C1; (Tfb)GAbu = (S)-2-amino-4-((carboxymethyl)(4,4,4-trifluorobutyl)amino)butanoic acid, O=C([C@H](CCN(CCCC(F)(F)F)CC(=O)[*:3])N[*:1])[*:2]; (Tfp)GAbu = (S)-2-amino-4-((carboxymethyl)(3,3,3-trifluoropropyl)amino)butanoic acid, O=C([C@H](CCN(CCC(F)(F)F)CC(=O)[*:3])N[*:1])[*:2]; B5(4) = 2,2-bis(4-pentenyl)glycine = 2-amino-2-(pent-4-en-1-yl)hept-6-enoic acid (stitching residue), C=CCCCC(CCCC=C)(N[*:1])C(=O)[*:2]; B5(5) = 2,2-bis(4-pentenyl)glycine, 2-amino-2-(pent-4-en-1-yl)hept-6-enoic acid (stitching residue), C=CCCCC(CCCC=C)(N[*:1])C(=O)[*:2]; PyrS″ = (S)-1-((allyloxy)carbonyl)-3-aminopyrrolidine-3-carboxylic acid (stapling residue), C=CCOC(=O)N1CC[C@@](N[*:1])(C(=O)[*:2])C1; TfeGA = (S)-2-amino-3-((carboxymethyl)(2,2,2-trifluoroethyl)amino)propanoic acid, O=C([C@H](CN(CC(=O)[*:3])CC(F)(F)F)N[*:1])[*:2]; Az = 1-((allyloxy)carbonyl)-3-aminoazetidine-3-carboxylic acid (stapling residue), C=CCOC(=O)N1CC(N[*:1])(C(=O)[*:2])C1; (Bn)GAbu = (S)-2-amino-4-(benzyl(carboxymethyl)amino)butanoic acid, O=C([C@H](CCN(CC(=O)[*:3])Cc1ccccc1)N[*:1])[*:2]; (Et)GAbu = (S)-2-amino-4-((carboxymethyl)(ethyl)amino)butanoic acid, CCN(CC[C@H](N[*:1])C(=O)[*:2])CC(=O)[*:3]; Phe(3-COOH) = N[C@@H](Cc1cccc(C(=O)O)c1)C(=O)O; Phe(2-CF3) = N[C@@H](Cc1ccccc1C(F)(F)F)C(=O)O; Phe(2-Cl) = N[C@@H](Cc1ccccc1Cl)C(=O)O; 2Nal = N[C@@H](Cc1ccc2ccccc2c1)C(=O)O; Bta = N[C@@H](Cc1csc2ccccc12)C(=O)O; Lys(iPr) = CC(C)NCCCC[C@H](N)C(=O)O; αAllylPro = C=CC[C@@]1(C(=O)O)CCCN1; tBuAla = CC(C)(C)C[C@H](N)C(=O)O; 3Thi = N[C@@H](Cc1ccsc1)C(=O)O; Cha = N[C@@H](CC1CCCCC1)C(=O)O

The first assay concerns the target T1, B-cat-Halo (beta-catenin HaloTag fusion expressed in HEK293 cells) (Homo sapiens (Human), UniProt P35222 1-781).
T1 sequence: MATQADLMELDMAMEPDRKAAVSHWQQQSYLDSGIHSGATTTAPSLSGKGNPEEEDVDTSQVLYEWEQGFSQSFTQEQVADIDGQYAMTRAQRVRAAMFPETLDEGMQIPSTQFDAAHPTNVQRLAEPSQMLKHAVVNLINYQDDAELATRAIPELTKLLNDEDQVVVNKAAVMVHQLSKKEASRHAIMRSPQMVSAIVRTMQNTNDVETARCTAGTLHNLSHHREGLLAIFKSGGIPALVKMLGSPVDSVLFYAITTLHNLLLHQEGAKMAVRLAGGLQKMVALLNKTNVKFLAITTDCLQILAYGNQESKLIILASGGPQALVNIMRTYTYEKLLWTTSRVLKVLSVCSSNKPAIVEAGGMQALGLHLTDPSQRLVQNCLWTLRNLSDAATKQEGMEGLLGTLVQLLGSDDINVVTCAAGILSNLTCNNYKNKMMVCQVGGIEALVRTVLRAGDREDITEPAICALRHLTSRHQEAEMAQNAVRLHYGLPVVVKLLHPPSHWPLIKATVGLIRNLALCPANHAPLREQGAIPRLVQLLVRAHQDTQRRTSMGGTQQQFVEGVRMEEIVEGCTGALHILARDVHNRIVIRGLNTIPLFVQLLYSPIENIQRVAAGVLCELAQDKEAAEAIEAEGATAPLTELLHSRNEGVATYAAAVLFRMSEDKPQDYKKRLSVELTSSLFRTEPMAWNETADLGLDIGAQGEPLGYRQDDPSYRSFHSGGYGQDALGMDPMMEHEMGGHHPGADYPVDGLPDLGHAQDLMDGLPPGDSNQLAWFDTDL
Briefly: cell-based or functional assay.
Take B1: the “NanoBRET Abs IC50” value was > 20 µM. Same read-out and setting: then Ac-[αAllylPro]N[Cha][B5(4)]DT[Lys(iPr)]AFL[PyrS2″]F[Bta]K-NH2 (staple 1-4, 4-11) [I-2450], with > 20 µM; and Ac-[αAllylPro]D[tBuAla][B5(4)]D[Phe(3-COOH)]AAFL[PyrS2″][Phe(2-CF3)][SbMeBztA]Q-NH2 (staple 1-4, 4-11) [I-2456], with 8.1 µM. On the same count and under the same terms, the figure for Ac-[αAllylPro]D[tBuAla][B5(4)]D[Phe(3-COOH)]QAFL[PyrS2″][Phe(2-CF3)][RbMeBztA]A-NH2 (staple 1-4, 4-11) [I-2459] is 15.1 µM. Same read-out and setting: the figure for Ac-[αAllylPro]D[tBuAla][B5(4)]D[Phe(3-COOH)]QAFL[PyrS2″][Phe(2-CF3)][SbMeBztA]A-NH2 (staple 1-4, 4-11) [I-2457] is 20.8 µM. Ac-[αAllylPro]D[tBuAla][B5(4)]D[Phe(3-COOH)]AAFL[PyrS2″][Phe(2-CF3)][2Nal]Q-NH2 (staple 1-4, 4-11) [I-2460]: the “NanoBRET Abs IC50” value came out at 12.8 µM.

Another assay has as its target T2, B-cat-Halo (beta-catenin HaloTag construct expressed in HEK293 cells) (UniProt P35222 1-781).
T2 sequence (looked up): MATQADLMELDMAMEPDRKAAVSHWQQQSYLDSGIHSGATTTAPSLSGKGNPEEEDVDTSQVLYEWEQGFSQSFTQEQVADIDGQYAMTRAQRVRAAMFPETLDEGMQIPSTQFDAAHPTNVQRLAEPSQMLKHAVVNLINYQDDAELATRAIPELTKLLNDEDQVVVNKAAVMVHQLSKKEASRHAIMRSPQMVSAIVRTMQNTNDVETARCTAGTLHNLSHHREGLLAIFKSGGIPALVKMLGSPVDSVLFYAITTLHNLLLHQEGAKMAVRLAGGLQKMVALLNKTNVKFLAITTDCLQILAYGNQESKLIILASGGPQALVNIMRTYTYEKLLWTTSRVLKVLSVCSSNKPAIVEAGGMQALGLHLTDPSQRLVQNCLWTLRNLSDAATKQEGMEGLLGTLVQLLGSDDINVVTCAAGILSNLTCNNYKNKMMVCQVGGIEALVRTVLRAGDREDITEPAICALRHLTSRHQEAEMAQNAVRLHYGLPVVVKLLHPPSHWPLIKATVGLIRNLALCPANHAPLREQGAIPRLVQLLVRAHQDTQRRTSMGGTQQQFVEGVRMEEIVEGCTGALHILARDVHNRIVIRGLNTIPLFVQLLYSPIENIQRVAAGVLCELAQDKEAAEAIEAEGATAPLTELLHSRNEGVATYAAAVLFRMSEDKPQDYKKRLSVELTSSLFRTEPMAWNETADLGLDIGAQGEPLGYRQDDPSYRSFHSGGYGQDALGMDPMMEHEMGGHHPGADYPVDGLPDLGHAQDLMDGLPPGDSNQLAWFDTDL
Put plainly: cell-based or functional assay.
Ac-[αAllylPro]D[tBuAla][B5(4)]D[(Tfp)GAbu]AAFL[PyrS2″][3Thi][Bta]Q-NH2 (staple 1-4, 4-11) [I-1839]: the “NanoBRET Abs IC50” value is 14.6 µM. Still for that read-out and setting: then Ac-[αAllylPro]D[tBuAla][B5(4)]D[TfeGA]AAFL[PyrS2″][Phe(2-Cl)][Bta]Q-NH2 (staple 1-4, 4-11) [I-1833], with 6.9 µM; and Ac-[αAllylPro]D[tBuAla][B5(4)]DDAAFL[Az][3Thi][Bta]Q-NH2 (staple 1-4, 4-11) [I-1828], with > 20 µM. Same read-out and setting: then Ac-[αAllylPro]D[tBuAla][B5(4)]DDAAFL[PyrS″][3Thi][Bta]Q-NH2 (staple 1-4, 4-11; also: staple -CH=CH- reduced to -CH2-CH2- in both staples) [I-1824], with > 20 µM; and Ac-[αAllylPro]D[tBuAla][B5(4)]D[(Bn)GAbu]AAFL[PyrS2″][3Thi][Bta]Q-NH2 (staple 1-4, 4-11) [I-1834], with 18.8 µM; and Ac-[αAllylPro]D[tBuAla][B5(4)]D[(Et)GAbu]AAFL[PyrS2″][3Thi][Bta]Q-NH2 (staple 1-4, 4-11) [I-1835], with 31.9 µM.

For the molecule Ac-[αAllylPro]D[tBuAla][B5(4)]D[(Tfb)GAbu]AAFL[PyrS2″][3Thi][Bta]Q-NH2 (staple 1-4, 4-11) [I-1837], the “NanoBRET Abs IC50” value worked out at 18.5 µM. Ac-[αAllylPro]D[tBuAla][B5(4)]D[(Pfbn)GAbu]AAFL[PyrS2″][3Thi][Bta]Q-NH2 (staple 1-4, 4-11) [I-1838]: the “NanoBRET Abs IC50” value was found to be 7.9 µM.
